Laboratory results published in paper PMC5421356 (Molecular genetics and metabolism, 2017).

Target: the molecule itself
Test: SEC

B1: human tryptophan 2,3-dioxygenase (40-390), Met108Ile variant (enzyme, UniProt P48775 40-390, looked up)
chain: LIYGNYLHLEKVLNAQELQSETKGNKIHDEHLFIITHQAYELWFKQILWELDSVREIFQNGHVRDERNILKVVSRMHRVSVILKLLVQQFSILETMTALDFNDFREYLSPASGFQSLQFRLLENKIGVLQNMRVPYNRRHYRDNFKGEENELLLKSEQEKTLLELVEAWLERTPGLEPHGFNFWGKLEKNITRGLEEEFIRIQAKEESEEKEEQVAEFQKQKEVLLSLFDEKRHEHLLSKGERRLSYRALQGALMIYFYREEPRFQVPFQLLTSLMDIDSLMTKWRYNHVCMVHRMLGSKAGTGGSSGYHYLRSTVSDRYKVFVDLFNLSTYLIPRHWIPKMNPTIHKFLY
Question: With B1 as the protein, how does the “stoichiometry N” value read?
Answer: 4
